Measurements taken from the Immune Epitope Database (IEDB).

Legend:
HLA-B*51:01 = assay: IEDB peptide-MHC binding, purified MHC/competitive/radioactivity; filed as Kd, often an IC50 or EC50 that approximates it; ≥ and ≤ were set here for values at or beyond the usual limits of such assays
HLA-B*08:01 = assay: as above
HLA-A*30:01 = assay: as above
HLA-A*68:02 = assay: as above
HLA-A*01:01 = assay: as above
HLA-A*26:01 = assay: as above
HLA-A*30:02 = assay: as above
HLA-B*18:01 = assay: IEDB peptide-MHC binding, purified MHC/direct/fluorescence; filed as Kd, often an IC50 or EC50 that approximates it; ≥ and ≤ were set here for values at or beyond the usual limits of such assays
HLA-A*29:02 = assay: IEDB peptide-MHC binding, purified MHC/competitive/radioactivity; filed as Kd, often an IC50 or EC50 that approximates it; ≥ and ≤ were set here for values at or beyond the usual limits of such assays; conditions: source organism: Mammarenavirus brazilense
HLA-A*32:01 = assay: as above; conditions: source organism: Mammarenavirus brazilense
[1] = source organism: Dengue virus 3 Martinique/1243/1999
[2] = source organism: Dengue virus 2 Jamaica/1409/1983
[3] = source organism: Vaccinia virus WR
[4] = source organism: Dengue virus 4 Philippines/H241/1956
[5] = source organism: Dengue virus 1 Brazil/97-11/1997
[6] = source organism: Dengue virus 4 Dominica/814669/1981
[7] = source organism: Mammarenavirus brazilense

Sequence: LPLPWTSGAT
- Kd (HLA-B*51:01; [1]): ≥ 21400 nM

Sequence: VAFLRFLTI
- Kd (HLA-B*08:01; [2]): 10.4 nM
- Kd (HLA-B*51:01; [2]): 1.89 nM

Sequence: ATREAQKRA
- Kd (HLA-A*30:01; [2]): 27.4 nM

Sequence: RTKIPLSKV
- Kd (HLA-A*30:01; [3]): 4.13 nM

Sequence: AARDRQFEK
- Kd (HLA-A*30:01; [3]): 104 nM

Sequence: QYIFTGQPLN
- Kd (HLA-A*30:01; [1]): 8840 nM

Sequence: MVSILASSLL
- Kd (HLA-A*68:02; [2]): 44.7 nM

Sequence: KTDFSNIRA
- Kd (HLA-A*30:01; source organism: Vaccinia virus Copenhagen): 209 nM

Sequence: LTEIASLPTY
- Kd (HLA-A*01:01; [4]): 1.39 nM
- Kd (HLA-A*26:01; [4]): 899 nM
- Kd (HLA-A*30:01; [4]): 9340 nM
- Kd (HLA-A*30:02; [4]): 226 nM

Sequence: KKMIRPQPME
- Kd (HLA-A*30:01; [5]): 8740 nM

Sequence: ELTCLNEASV
- Kd (HLA-A*68:02; source organism: Homo sapiens): 68.8 nM

Sequence: NPSFKRQII
- Kd (HLA-B*08:01; [3]): 19.5 nM

Sequence: IPPTAGILA
- Kd (HLA-B*51:01; [5]): 5550 nM

Sequence: TTHFQRALI
- Kd (HLA-A*68:02; [2]): 1.3 nM

Sequence: VEAGLIDTY
- Kd (HLA-B*18:01; source organism: Vibrio vulnificus YJ016): ≥ 20000 nM

Sequence: TFIRSTMPLV
- Kd (HLA-A*30:01; [4]): 257 nM

Sequence: RTRNALDNL
- Kd (HLA-A*30:01; [1]): 3.33 nM

Sequence: LKGMSYAMCL
- Kd (HLA-B*08:01; source organism: Dengue virus 3 Singapore/8120/1995): 438 nM

Sequence: DTVTYKCPLL
- Kd (HLA-A*30:01; [6]): 3080 nM

Sequence: NEVEVITKL
- Kd (HLA-B*18:01; source organism: West Nile virus): 6.3 nM

Sequence: MIDNQKLSY
- Kd (HLA-A*01:01; [7]): 9.61 nM
- Kd (HLA-A*26:01; [7]): ≥ 34700 nM
- Kd (HLA-A*29:02): 106 nM
- Kd (HLA-A*30:01; [7]): ≥ 34600 nM
- Kd (HLA-A*30:02; [7]): 843 nM
- Kd (HLA-A*32:01): ≥ 61200 nM

Sequence: YSAPSESEGV
- Kd (HLA-A*68:02; [6]): 12.2 nM

Sequence: LGLMALKLI
- Kd (HLA-B*51:01; [1]): 8370 nM

Sequence: MGLGKGWPL
- Kd (HLA-B*08:01; [2]): 8.72 nM

Sequence: WTMKILIGVI
- Kd (HLA-A*68:02; [2]): 184 nM
